Measurements reported in IntAct's records for PubMed 16316992.

molecular target: magi3_human MAGI3 (UniProt Q5TCQ9)
Sequence (Q5TCQ9 whole entry): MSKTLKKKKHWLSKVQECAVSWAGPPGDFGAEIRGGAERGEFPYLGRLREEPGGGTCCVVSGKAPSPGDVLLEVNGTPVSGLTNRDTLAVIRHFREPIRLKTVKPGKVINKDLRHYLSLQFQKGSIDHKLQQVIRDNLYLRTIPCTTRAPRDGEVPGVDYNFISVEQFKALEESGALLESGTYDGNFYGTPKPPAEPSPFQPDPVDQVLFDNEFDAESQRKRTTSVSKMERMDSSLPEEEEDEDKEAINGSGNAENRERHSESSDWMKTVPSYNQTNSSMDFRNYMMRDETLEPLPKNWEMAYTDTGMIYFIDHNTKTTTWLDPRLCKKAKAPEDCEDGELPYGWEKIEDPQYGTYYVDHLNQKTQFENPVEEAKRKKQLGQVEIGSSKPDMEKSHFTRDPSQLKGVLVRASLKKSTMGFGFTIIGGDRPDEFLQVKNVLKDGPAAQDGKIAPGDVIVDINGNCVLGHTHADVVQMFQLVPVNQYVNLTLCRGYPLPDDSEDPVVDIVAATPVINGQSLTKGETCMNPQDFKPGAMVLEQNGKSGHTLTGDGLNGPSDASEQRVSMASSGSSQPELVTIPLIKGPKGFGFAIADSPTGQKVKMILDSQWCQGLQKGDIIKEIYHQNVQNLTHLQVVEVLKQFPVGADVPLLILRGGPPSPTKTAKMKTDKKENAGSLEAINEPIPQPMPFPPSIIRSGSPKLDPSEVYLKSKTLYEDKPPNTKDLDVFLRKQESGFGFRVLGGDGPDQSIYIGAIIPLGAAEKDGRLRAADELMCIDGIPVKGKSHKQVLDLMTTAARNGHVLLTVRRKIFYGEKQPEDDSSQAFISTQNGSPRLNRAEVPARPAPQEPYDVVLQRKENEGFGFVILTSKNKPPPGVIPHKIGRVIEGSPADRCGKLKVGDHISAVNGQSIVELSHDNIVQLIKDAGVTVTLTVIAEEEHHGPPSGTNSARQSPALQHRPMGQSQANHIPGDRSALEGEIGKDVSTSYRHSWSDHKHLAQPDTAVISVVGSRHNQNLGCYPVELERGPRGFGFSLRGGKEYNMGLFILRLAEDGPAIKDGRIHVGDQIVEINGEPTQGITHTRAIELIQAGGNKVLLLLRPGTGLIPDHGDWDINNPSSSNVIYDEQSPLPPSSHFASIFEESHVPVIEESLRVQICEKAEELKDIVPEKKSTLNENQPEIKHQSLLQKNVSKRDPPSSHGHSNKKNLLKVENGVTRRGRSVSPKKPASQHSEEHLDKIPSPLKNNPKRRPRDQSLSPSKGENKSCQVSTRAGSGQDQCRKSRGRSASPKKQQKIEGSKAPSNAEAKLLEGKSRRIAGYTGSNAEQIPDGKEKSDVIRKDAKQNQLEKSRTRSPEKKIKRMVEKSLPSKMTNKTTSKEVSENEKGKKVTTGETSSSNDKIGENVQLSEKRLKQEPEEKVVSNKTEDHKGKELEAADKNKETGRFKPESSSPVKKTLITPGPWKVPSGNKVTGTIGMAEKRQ

Chain of Beta-1 adrenergic receptor (Homo sapiens), P08588 E474A (P08588 whole entry E474A): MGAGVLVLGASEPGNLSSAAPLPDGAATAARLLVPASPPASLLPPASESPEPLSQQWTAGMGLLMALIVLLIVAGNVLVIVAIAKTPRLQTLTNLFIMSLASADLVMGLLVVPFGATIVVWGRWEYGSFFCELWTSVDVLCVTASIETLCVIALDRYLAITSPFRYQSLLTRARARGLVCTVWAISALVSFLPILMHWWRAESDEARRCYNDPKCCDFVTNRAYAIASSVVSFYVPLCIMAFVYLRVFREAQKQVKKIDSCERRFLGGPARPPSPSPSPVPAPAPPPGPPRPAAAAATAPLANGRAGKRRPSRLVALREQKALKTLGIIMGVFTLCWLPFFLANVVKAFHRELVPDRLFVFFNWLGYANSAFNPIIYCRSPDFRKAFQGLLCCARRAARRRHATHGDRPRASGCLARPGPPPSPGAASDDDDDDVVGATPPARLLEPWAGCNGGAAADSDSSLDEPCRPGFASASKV
Chain of Beta-1 adrenergic receptor (Homo sapiens), P08588 E474T (P08588 whole entry E474T): as the sequence (P08588 whole entry E474A) above, with A474T counted along it
Chain of Beta-1 adrenergic receptor (Homo sapiens), P08588 V477L (P08588 whole entry V477L): as the sequence (P08588 whole entry E474A) above, with A474E, V477L counted along it
Chain of Beta-1 adrenergic receptor (Homo sapiens), P08588 V477A (P08588 whole entry V477A): as the sequence (P08588 whole entry E474A) above, with A474E, V477A counted along it
Chain of Beta-1 adrenergic receptor (Homo sapiens), P08588 K476R (P08588 whole entry K476R): as the sequence (P08588 whole entry E474A) above, with A474E, K476R counted along it
Chain of Beta-1 adrenergic receptor (Homo sapiens), P08588 V477M (P08588 whole entry V477M): as the sequence (P08588 whole entry E474A) above, with A474E, V477M counted along it
Chain of Beta-1 adrenergic receptor (Homo sapiens), P08588 V477I (P08588 whole entry V477I): as the sequence (P08588 whole entry E474A) above, with A474E, V477I counted along it
Chain of Beta-1 adrenergic receptor (Homo sapiens), P08588 S475A (P08588 whole entry S475A): as the sequence (P08588 whole entry E474A) above, with A474E, S475A counted along it

Row | effect of a mutation on the interaction | Substance
1 | decreasing interaction | Beta-1 adrenergic receptor (Homo sapiens), P08588 V477I
2 | decreasing interaction | Beta-1 adrenergic receptor (Homo sapiens), P08588 V477L
3 | decreasing interaction | Beta-1 adrenergic receptor (Homo sapiens), P08588 V477M

molecular target: magi3_human MAGI3 (UniProt Q5TCQ9); remark: another data set of the same source

Row | Substance | effect of a mutation on the interaction
4 | Beta-1 adrenergic receptor (Homo sapiens), P08588 E474T | decreasing interaction
5 | Beta-1 adrenergic receptor (Homo sapiens), P08588 K476R | decreasing interaction
6 | Beta-1 adrenergic receptor (Homo sapiens), P08588 V477A | decreasing interaction

Other lines, results leading:

Row | effect of a mutation on the interaction | Substance
7 | decreasing interaction | Beta-1 adrenergic receptor (Homo sapiens), P08588 E474A
8 | decreasing interaction | Beta-1 adrenergic receptor (Homo sapiens), P08588 S475A
